The chains are these.
B1: KCNAB2 (parent)
chain: IPPYSRASLKGYQWLKDKILSEEG
B2: PSD2 (parent)
chain: PLMGETQERERVLTHFSRRYCQCN
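Also: lentivirally expressed fusions sorted by FACS into six bins by GFP to DsRed ratio, PSI derived from sequencing read proportions per bin multiplied by bin number.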

In one data set the parent is B1. The data set is described as follows: protein stability index of a GFP-peptide fusion (GPS, HEK-293T) (PSI 1-6); higher = more stable. The settings on record: c terminus: a fixed tail appended.
Regarding IPPYSRASLKGYQWLKDKILIEEG [S21I], the protein stability index was determined as 2.3.
Still for that read-out and setting: next, IPPYSRASLKGYQWLKDKILVEEG [S21V]: 1.67; IPPYSRASLKGYQWLKDKILTEEG [S21T]: 2.31; IPPYSRASLKGYQWLKDKILQEEG [S21Q]: 3.31.
On the same count and under the same terms, with IPPYSRASLKGYQWLKDKILMEEG [S21M] the figure was 2.43; with IPPYSRASLKGYQWLKDKILLEEG [S21L], 2.19; with IPPYSRASLKGYQWLKDKILNEEG [S21N], 2.02.
Still for that read-out and setting: next, IPPYSRASLKGYQWLKDKILYEEG [S21Y]: 2.08; IPPYSRASLKGYQWLKDKILKEEG [S21K]: 3.24.
In the case of IPPYSRASLKGYQWLKDKILREEG [S21R], the protein stability index came to 1.68.
Same read-out and setting: next, IPPYSRASLKGYQWLKDKILPEEG [S21P]: 2.45; IPPYSRASLKGYQWLKDKILWEEG [S21W]: 3.22; IPPYSRASLKGYQWLKDKILSEEY [G24Y]: 1.48.
On the same count and under the same terms, with IPPYSRASLKGYQWLKDKILSEEP [G24P] the figure was 1.95; with IPPYSRASLKGYQWLKDKILSEEH [G24H], 2.09.
On the same count and under the same terms, with IPPYSRASLKGYQWLKDKILSEEA [G24A] the figure was 2.31; with IPPYSRASLKGYQWLKDKILSEEN [G24N], 2.05.
As for IPPYSRASLKGYQWLKDKILSEEE [G24E], the protein stability index was 3.1.
Still for that read-out and setting: with IPPYSRASLKGYQWLKDKILSEEL [G24L] the figure was 1.43.
The same measure, in the same setting: next, IPPYSRASLKGYQWLKDKILSEEW [G24W]: 1.35; IPPYSRASLKGYQWLKDKILSEES [G24S]: 2.49; IPPYSRASLKGYQWLKDKILSEEK [G24K]: 2.61.
Take IPPYSRASLKGYQWLKDKILSEED [G24D]: the protein stability index stood at 3.48.
On the same count and under the same terms, next, IPPYSRASLKGYQWLKDKILSEER [G24R]: 1.47; IPPYSRASLKGYQWLKDKILSEEV [G24V]: 1.77; IPPYSRASLKGYQWLKDKILSEEC [G24C]: 2.06.
Still for that read-out and setting: with IPPYSRASLKGYQWLKDKILSEEF [G24F] the figure was 1.99; with IPPYSRASLKGYQWLKDKILSEEI [G24I], 1.81.
Still for that read-out and setting: next, IPPYSRASLKGYQWLKDKILSEEQ [G24Q]: 3.79; IPPYSRASLKGYQWLKDKILSEET [G24T]: 1.99.
With IPPYSRASLKGYQWLKDKILSEEM [G24M], the protein stability index stood at 2.56.
As for IPPYSRASLKGYQWLKDKILSETG [E23T], the protein stability index is 3.2.
The same measure, in the same setting: next, IPPYSRASLKGYQWLKDKILSEMG [E23M]: 2.31; IPPYSRASLKGYQWLKDKILSEHG [E23H]: 1.76.
On the same count and under the same terms, next, IPPYSRASLKGYQWLKDKILSEPG [E23P]: 1.6; IPPYSRASLKGYQWLKDKILSEVG [E23V]: 2.5; IPPYSRASLKGYQWLKDKILSEKG [E23K]: 1.84.
On the same count and under the same terms, next, IPPYSRASLKGYQWLKDKILSEFG [E23F]: 3.45; IPPYSRASLKGYQWLKDKILSERG [E23R]: 2.43; IPPYSRASLKGYQWLKDKILSEYG [E23Y]: 2.18.
Consider IPPYSRASLKGYQWLKDKILSESG [E23S], for which the protein stability index stood at 4.83.
The same measure, in the same setting: next, IPPYSRASLKGYQWLKDKILSEDG [E23D]: 1.51; IPPYSRASLKGYQWLKDKILSEIG [E23I]: 2.62; IPPYSRASLKGYQWLKDKILSEQG [E23Q]: 2.39.
Same read-out and setting: next, IPPYSRASLKGYQWLKDKILSENG [E23N]: 2.
With IPPYSRASLKGYQWLKDKILSEAG [E23A], the protein stability index was found to be 3.77.
Still for that read-out and setting: with IPPYSRASLKGYQWLKDKILSVEG [E22V] the figure was 1.22.
The same measure, in the same setting: next, IPPYSRASLKGYQWLKDKILSGEG [E22G]: 1.68.
Same read-out and setting: next, IPPYSRASLKGYQWLKDKILSFEG [E22F]: 2.12; IPPYSRASLKGYQWLKDKILSQEG [E22Q]: 2.47.
For the variant IPPYSRASLKGYQWLKDKILSREG [E22R], the protein stability index stood at 1.62.
Still for that read-out and setting: with IPPYSRASLKGYQWLKDKILSAEG [E22A] the figure was 2.74.
As to IPPYSRASLKGYQWLKDKILSDEG [E22D], the protein stability index is 2.68.
Same read-out and setting: with IPPYSRASLKGYQWLKDKILSSEG [E22S] the figure was 2.08.
On the same count and under the same terms, with IPPYSRASLKGYQWLKDKILSTEG [E22T] the figure was 1.97.
The same measure, in the same setting: with IPPYSRASLKGYQWLKDKILSKEG [E22K] the figure was 1.75.
For the variant IPPYSRASLKGYQWLKDKILSHEG [E22H], the protein stability index worked out at 1.45.
Same read-out and setting: with IPPYSRASLKGYQWLKDKILSNEG [E22N] the figure was 2.26.
Same read-out and setting: with IPPYSRASLKGYQWLKDKILSCEG [E22C] the figure was 2.09.
For the variant IPPYSRASLKGYQWLKDKILSPEG [E22P], the protein stability index worked out at 2.48.
Same read-out and setting: next, IPPYSRASLKGYQWLKDKILSWEG [E22W]: 2.74.

In a further data set the parent is B2. Described as above. The settings on record: c terminus: a fixed tail appended.
As to PLMGETQEREIVLTHFSRRYCQCN [R11I], the protein stability index was determined as 2.35.
With PLMGETQEREEVLTHFSRRYCQCN [R11E], the protein stability index amounted to 3.98.
The same measure, in the same setting: next, PLMGETQEREWVLTHFSRRYCQCN [R11W]: 2.19.
Same read-out and setting: with PLMGETQEREKVLTHFSRRYCQCN [R11K] the figure was 2.87; with PLMGETQERESVLTHFSRRYCQCN [R11S], 2.53; with PLMGETQEDERVLTHFSRRYCQCN [R9D], 3.79.
On the same count and under the same terms, with PLMGETQEWERVLTHFSRRYCQCN [R9W] the figure was 1.46; with PLMGETQEPERVLTHFSRRYCQCN [R9P], 3.29.
In the case of PLMGETQECERVLTHFSRRYCQCN [R9C], the protein stability index turned out to be 2.68.
On to PLMGETQEMERVLTHFSRRYCQCN [R9M], for which the protein stability index is 2.16.
Still for that read-out and setting: with PLMGTTQERERVLTHFSRRYCQCN [E5T] the figure was 2.09; with PLMGSTQERERVLTHFSRRYCQCN [E5S], 2.66; with PLMGCTQERERVLTHFSRRYCQCN [E5C], 1.32.
The same measure, in the same setting: with PLMGRTQERERVLTHFSRRYCQCN [E5R] the figure was 2.39; with PLMGLTQERERVLTHFSRRYCQCN [E5L], 2.08; with PLMGDTQERERVLTHFSRRYCQCN [E5D], 2.38.
Still for that read-out and setting: next, PLMGGTQERERVLTHFSRRYCQCN [E5G]: 2.46; PLMKETQERERVLTHFSRRYCQCN [G4K]: 2.6.
For PLMFETQERERVLTHFSRRYCQCN [G4F], the protein stability index turned out to be 2.31.
Turning to PLMPETQERERVLTHFSRRYCQCN [G4P], the protein stability index turned out to be 3.62.
Still for that read-out and setting: with PLMNETQERERVLTHFSRRYCQCN [G4N] the figure was 2.92.
Still for that read-out and setting: with PLMIETQERERVLTHFSRRYCQCN [G4I] the figure was 2.76; with PLMQETQERERVLTHFSRRYCQCN [G4Q], 2.43; with PLMSETQERERVLTHFSRRYCQCN [G4S], 2.92.
The same measure, in the same setting: next, PLMAETQERERVLTHFSRRYCQCN [G4A]: 3.3.
PLMGETQERERVLTHFSRRYCQCL [N24L]: the protein stability index is 2.71.
Still for that read-out and setting: next, PLMGETQERERVLTHFSRRYCQCE [N24E]: 3.84; PLMGETQERERVLTHFSRRYCQCS [N24S]: 3.38.
On the same count and under the same terms, next, PLMGETQERERVLTHFSRRYCQCC [N24C]: 3.05.
Still for that read-out and setting: next, PLMGETQERERVLTHFSRRYCQCG [N24G]: 3.05.
Consider PLMGETQERERVLTHFSRRYCQCR [N24R], for which the protein stability index was found to be 2.14.
On the same count and under the same terms, next, PLMGETQERERVLTHFSRRYCQCA [N24A]: 3.04.
Consider PLMGETQERERVLTHFSRRYCQCM [N24M], for which the protein stability index turned out to be 2.96.

The values are drawn from the supplement of paper PMC10567573.
